From US11884743B2, “Preparation and application of an intact recombinant antibody specific to clothianidin based on the identified variable region sequence” (Zhejiang University, priority 2020, dated 2024)

Key:
[1] = antibody binding kinetics by surface plasmon resonance (SPR); settings: CM7 chip, antibody coupled at pH 5.0, clothianidin 0.78-50 nM
Description: The CM7 chip was used in this invention, and the optimal pH for both antibodies was 5.0. The final signal values of the antibodies coupled on the chip were 38663 RU and 39854 RU, respectively. Kinetic experiments were performed to determine the affinity of both the parental ascitic monoclonal antibody and the intact recombinant antibody to clothianidin at a range of analyte concentrations ([…], and 0.78 nM).

[2] = heterologous competitive indirect ELISA (coating antigen imidaclothiz-OVA); type: binding
Excerpt: In the early preparation stage of parental ascitic monoclonal antibodies, the assay sensitivity difference was compared between the homologous competitive indirect ELISA (coating antigen was clothianidin-OVA) and the heterologous competitive indirect ELISA (coating antigen was imidaclothiz-OVA). […] Therefore, in the present disclosure, the heterologous competitive indirect ELISA was used to evaluate the sensitivity and specificity of the intact recombinant antibody against clothianidin. A 96-well plate was coated with imidaclothiz-OVA as the heterologous competitive antigen; subsequently, ELISA was performed using a rabbit anti-mouse IgG-HRP as a detection antibody, tetramethylbenzidine (TMB) as a reaction substrate, and clothianidin and other neonicotinoid pesticide standards as analytes.

B1: intact recombinant antibody against clothianidin: Recombinant mouse IgG1/kappa antibody, VH SEQ ID NO: 2, VL SEQ ID NO: 4, expressed in HEK293F cells (antibody, listed as Mus musculus, V domains shown)
VH: EVQLQQSGPELVKPGASVKMSCKASGYTFTNYVMHWVKQKPGQGLEWIGFFYPYIDYTKYNEMFKGKATLTSDTSSSTAYMELSGLTSEDSAVYFCARSQFFYRYDYFDYWGQGTALTVSS
VL: DVLMTQTPLSLPVSLGDQASISCRSSQNIVHSNGNTYLEWYLQKPGQSPKVLIYKVSNRFSGVPDRFSGSGSGTDFTLKINRVEAEDLGIYYCFQGSHVPFTFGSGTKLEIK
Kd [1]: 3.24 nM | Sensitivity (IC50) [2]: 4.62 ng/mL | detection range for ELISA (IC20-IC80) [2]: 0.92 to 23.04 ng/mL
